Source: patent US20040098763A1 (published 2004)

Columns and labels:
[1] = molecular target: T1, Cdc2b (Cdc2bAt) in DB-vector (A. thaliana, UniProt P04386 1-147; P25859 1-309); assay: yeast two-hybrid (MaV203), X-Gal filter assay for β-galactosidase; AD construct x BD construct
T1 construct: Yeast two-hybrid DB/BD fusion
Description: (§1) ⁽¹⁾For each interaction test, yeast strain (MaV203) was transformed first with AD constructs listed in the first row, and then with BD constructs listed in the first column of the table following standard protocol. Three independent colonies from each interaction combination were used in X-Gal filter assay for β-galactosidase activity. The results of X-Gal assays were recorded at 2, 4, and 20 hours (overnight). Color intensity determined by visual inspection: “−” = none; “+” = weak; “++” = moderate; “+++” = strong. ⁽²⁾Faint color was visible after overnight incubation.

[2] = molecular target: T2, vector alone (DB-vector without a gene) (UniProt P04386 1-147); assay: yeast two-hybrid, quantification of reporter activity; ICK1 in GAL4-AD vector, partner in DB vector
T2 construct: also called Control

PCNAAt in DB-vector = molecular target: T3, PCNAAt in DB-vector (Arabidopsis); assay: as above
T3 construct: Yeast two-hybrid DB/BD fusion; also called Arabidopsis PCNA

[3] = molecular target: T4, CycD1 (Arath; CycD1; 1) in DB-vector (A. thaliana, UniProt P04386 1-147; P42751 1-339); assay: as above
T4 construct: Yeast two-hybrid DB/BD fusion

[4] = molecular target: T5, CycD2 (Arath; CycD2; 1) in DB-vector (Arabidopsis, UniProt P04386 1-147; P42752 1-361); assay: as above
T5 construct: Yeast two-hybrid DB/BD fusion; also called cyclin D2

[5] = molecular target: T1, Cdc2b (Cdc2bAt) in DB-vector; assay: as above
[6] = molecular target: T6, CycB2 (Arath; CycB2; 2) in DB-vector (A. thaliana, UniProt P04386 1-147; Q39070 1-429); assay: as above
T6 construct: Yeast two-hybrid DB fusion

[7] = molecular target: T7, CycD3 (Arath; CycD3; 1) in DB-vector (Arabidopsis, UniProt P04386 1-147; P42753 1-376); assay: as above
T7 construct: Yeast two-hybrid DB/BD fusion; also called cyclin D3

[8] = molecular target: T8, CycB1 (Arath; CycB1; 1) in DB-vector (A. thaliana, UniProt P04386 1-147; P30183 1-428); assay: as above
T8 construct: Yeast two-hybrid DB fusion; also called Cyc1At

[9] = molecular target: T9, CycA2 (Arath; CycA2; 2) in DB-vector (A. thaliana, UniProt P04386 1-147; Q147G5 1-436, limits assumed); assay: as above
T9 construct: Yeast two-hybrid DB fusion

ATMAP2 in DB-vector = molecular target: T10, ATMAP2 in DB-vector (A. thaliana); assay: as above
T10 construct: Yeast two-hybrid DB fusion; also called MAP kinase

[10] = molecular target: T11, Cdc2a (Cdc2aAt) in DB-vector (Arabidopsis, UniProt P04386 1-147; P24100 1-294); assay: as above
T11 construct: Yeast two-hybrid DB/BD fusion; also called Arath;CDKA;1

[11] = molecular target: T11, Cdc2a (Cdc2aAt) in DB-vector; assay: yeast two-hybrid (MaV203), X-Gal filter assay for β-galactosidase; AD construct x BD construct
Description: as §1

[12] = molecular target: T4, CycD1 (Arath; CycD1; 1) in DB-vector; assay: as above
Description: as §1

[13] = molecular target: T5, CycD2 (Arath; CycD2; 1) in DB-vector; assay: as above
Description: as §1

B1: ICK1 in a GAL4-activation domain vector (other, not shown: large carriers)
chain: MVRKYRKAKGIVEAGVSSTYMQLRSRRIVYVRSEKSSSVSVVGDNGVSSSCSGSNEYKKKELIHLEEEDKDGDTETSTYRRGTKRKLFENLREEEKEELSKSMENYSSEFESAVKESLDCCCSGRKTMEETVTAEEEEKAKLMTEMPTESEIEDFFVEAEKQLKEKFKKKYNFDFEKEKPLEGRYEWVKLE
notes: Yeast two-hybrid AD fusion; the GAL4 domain is placed first as in standard vectors
- binding result [1]: no binding
- Quantification (yeast two-hybrid reporter activity) [2]: 0
- Quantification (yeast two-hybrid reporter activity) (PCNAAt in DB-vector): 0
- Quantification (yeast two-hybrid reporter activity) [3]: 3.13
- Quantification (yeast two-hybrid reporter activity) [4]: 14.8
- Quantification (yeast two-hybrid reporter activity) [5]: 0
- Quantification (yeast two-hybrid reporter activity) [6]: 0.05
- Quantification (yeast two-hybrid reporter activity) [7]: 22.7
- Quantification (yeast two-hybrid reporter activity) [8]: 0.06
- Quantification (yeast two-hybrid reporter activity) [9]: 0.03
- Quantification (yeast two-hybrid reporter activity) (ATMAP2 in DB-vector): 0
- Quantification (yeast two-hybrid reporter activity) [10]: 2.65

B2: ICDK of Chenopodium rubrum (AD construct) (other, not shown: large carriers)
chain: MAAAATPTSSPAKKIKKVSKSSYNIPQLRSRRKNLSAPENFAELETTPLEVAAVVEEEEVANCSSSEVITTARSDFPPSCCSSNYDQLSSSEPEVVKDDDGLGNRTADPEVESGEASSKQKESHRTEAREATKLDDQDYPATKSTVQIKMPSDSEIEEFFAVAEKDLQKRFSEKYNFDIVKDVPLKGRYDWVPINP
notes: Yeast two-hybrid AD fusion; also called ICKCr; Chenopodium ICDK
- binding result [1]: no binding
- binding result [11]: no binding

B3: ICK2 (AD construct) (other, not shown: large carriers)
chain: MAAVRRRERDVVEENGVTTTTVKRRKMEEEVDLVESRIILSPCVQATNRGGIVARNSAGASETSVVIVRRRDSPPVEEQCQIEEEDSSVSCCSTSEEKSKRRIEFVDLEENNGDDRETETSWIYDDLNKSEESMNMDSSSVAVEDVESRRRLRKSLHETVKEAELEDFFQVAEKDLRNKLLECSMKYNFDFEKDEPLGGGRYEWVKLNP
- binding result [1]: no binding

B4: ICN7 (AD construct) (other, not shown: large carriers)
chain: MGKYMKKSKITGDISVMEVSKATAPSPGVRTRAAKTLALKRLNSSAADSALPNDSSCYLQLRSRRLEKPSSLIEPKQPPRVHRSGIKESGSRSRVDSVNSAPVAQSSNEDECFDNFVSVQVSCGENSLGFESRHSTRESTPCNFVEDMEIMVTPGSSTRSMCRATKEYTREQDNVIPTTSEMEEFFAYAEQQQQRLFMEKYNFDIVNDIPLSGRYEWVQVKP
notes: also called ICK6
- binding result [1]: no binding

B5: ICN8 (AD construct) (other, not shown: large carriers)
chain: MGKYIRKSKIDGAGAGAGGGGGGGGGGESSIALMDVVSPSSSSSLGVLTRAKSLALQQQQQRCLLQKPSSPSSLPPTSASPNPPSKQKMKKKQQQMNDCGSYLQLRSRRLQKKPPIVVIRSTKRRKQQRRNETCGRNPNPRSNLDSIRGDGSRSDSVSESVVFGKDKDLISEINKDPTFGQNFFDLEEEHTQSFNRTTRESTPCSLIRRPEIMTTPGSSTKLNICVSESNQREDSLSRSHRRRPTTPEMDEFFSGAEEEQQKQFIEKYNFDPVNEQPLPGRFEWTKVDD
notes: Yeast two-hybrid AD fusion; also called ICK7
- binding result [1]: no binding

B6: ICN2 (AD construct) (other, not shown: large carriers)
chain: KKKQRERAHKNPREKKMSERKRELAEEASSTSFSPLKKTKLNDSSDSSPDSHDVIVFAVSSSSVASSAALASDECSVTIGGEESDQSSSISSGCFTSESKEIAKNSSSFGVDLEDHQIETETETSTFITSNFRKETSPVSEGLGETTTEMESSSATKRKQPGVRKTPTAAEIEDLFSELESQDDKKKQFIEKYNFDIVNDEPLEGRYKWDRL
notes: also called ICK4
- binding result [1]: no binding
- binding result [11]: no binding

B7: ICN6 (AD construct) (other, not shown: large carriers)
chain: LSPEKTIMSLREMSETKPKRDSEYEGSNIKRMRLDDDDDVLRSPTRTLSSSSSSSLAYSVSDSGGFCSVALSEEEDDHLSSSISSGCSSSETNEIATRLPFSDLEAHEISETEISTLLTNNFRKQGISSSENLGETAEMDSATTEMRDQRKTEKKKKMEKSPTQAELDDFFSAAERYEQKRFTEKYNYDIVNDTPLEGRYQWVSLKP
notes: also called ICK5
- binding result [1]: no binding
- binding result [11]: no binding

B8: CKS1At (AD construct) (other, UniProt O23249 1-87, looked up, not shown: large carriers)
chain: MGQIQYSEKYFDDTFEYRHVVLPPEVAKLLPKNRLLSENEWRAIGVQQSRGWVHYAVHRPEPHIMLFRRPLNYQQQQENQAQNMLVK
- binding result [12]: no binding
- binding result [13]: no binding
